This is an account of results in publication PMC3688715.

The assay concerns the target Heteropneustes fossilis hepatic cytosolic arginase (ARG I) (Heteropneustes fossilis (endogenous in liver)). As to the kind of experiment: SEC + other: SDS-PAGE and western blotting; native mass of the purified enzyme by gel filtration on Sephadex G-150 with four standard proteins (75±3 kDa); subunit mass by SDS-PAGE and western blotting (24 kDa); single band on native PAGE.

One may read the stoichiometry N as the number of molecules, sites or subunits per partner or assembly. Turning to “Heteropneustes fossilis hepatic cytosolic arginase (ARG I) (enzyme)”, the stoichiometry N was 3.
